The source of these data is patent US20210388087A1 (Chugai, published 2021).

T1: Human CD3eg linker (human)
T1 construct: Single chain: epsilon and gamma subunits of human CD3 joined by a 29-mer linker, Flag-tag at the C-terminus; also called recombinant human CD3
T1 chain: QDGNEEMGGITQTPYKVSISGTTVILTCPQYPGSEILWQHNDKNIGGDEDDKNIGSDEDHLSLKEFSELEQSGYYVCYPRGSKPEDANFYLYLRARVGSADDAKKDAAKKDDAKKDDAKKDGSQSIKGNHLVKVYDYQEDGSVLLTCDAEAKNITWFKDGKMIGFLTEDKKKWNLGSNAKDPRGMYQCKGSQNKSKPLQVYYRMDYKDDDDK

B1: H183/L072 VH G52cI (antibody, name in Kabat numbering, V domains shown)
VH: QVQLVESGGGLVQPGRSLRLSCAASGFTFSNAWMHWVRQAPGKGLEWVAQIKDKINAYAAYYAPSVKGRFTISRDDSKNSIYLQMNSLKTEDTAVYYCHYVHYASASTVLPAFGVDAWGQGTTVTVSS
VL: DIVMTQSPLSLPVTPGEPASISCQASQELVHMNRNTYLHWYQQKPGQAPRLLIYKVSNRFPGVPDRFSGSGSGTDFTLKISRVEAEDVGVYYCAQGTSVPFTFGQGTKLEIK
B2: H183/L072 VH H35S (antibody, name in Kabat numbering, V domains shown)
VH: B1 VH with H35S, I55G
VL: B1 VL
B3: H183/L072 VH G100hM (antibody, name in Kabat numbering, V domains shown)
VH: B1 VH with I55G, G114M
VL: B1 VL
B4: H183/L072 VH G52cV (antibody, name in Kabat numbering, V domains shown)
VH: B1 VH with I55V
VL: B1 VL
B5: H183/L072 VH G100hP (antibody, name in Kabat numbering, V domains shown)
VH: B1 VH with I55G, G114P
VL: B1 VL
B6: H183/L072 VH G52cK (antibody, name in Kabat numbering, V domains shown)
VH: B1 VH with I55K
VL: B1 VL
B7: H183/L072 VH H35T (antibody, name in Kabat numbering, V domains shown)
VH: B1 VH with H35T, I55G
VL: B1 VL
B8: H183/L072 VH G52cQ (antibody, name in Kabat numbering, V domains shown)
VH: B1 VH with I55Q
VL: B1 VL
B9: H183/L072 VH H35M (antibody, name in Kabat numbering, V domains shown)
VH: B1 VH with H35M, I55G
VL: B1 VL
B10: H183/L072 VH H35P (antibody, name in Kabat numbering, V domains shown)
VH: B1 VH with H35P, I55G
VL: B1 VL
B11: H183/L072 VH G52cY (antibody, name in Kabat numbering, V domains shown)
VH: B1 VH with I55Y
VL: B1 VL
B12: H183/L072 VH G100hI (antibody, name in Kabat numbering, V domains shown)
VH: B1 VH with I55G, G114I
VL: B1 VL
B13: H183/L072 VH H35Q (antibody, name in Kabat numbering, V domains shown)
VH: B1 VH with H35Q, I55G
VL: B1 VL
B14: H183/L072 VH H35D (antibody, name in Kabat numbering, V domains shown)
VH: B1 VH with H35D, I55G
VL: B1 VL
B15: H183/L072 VH G52cT (antibody, name in Kabat numbering, V domains shown)
VH: B1 VH with I55T
VL: B1 VL
B16: H183/L072 VH H35N (antibody, name in Kabat numbering, V domains shown)
VH: B1 VH with H35N, I55G
VL: B1 VL
B17: H183/L072 VH H35G (antibody, name in Kabat numbering, V domains shown)
VH: B1 VH with H35G, I55G
VL: B1 VL
B18: H183/L072 VH H35L (antibody, name in Kabat numbering, V domains shown)
VH: B1 VH with H35L, I55G
VL: B1 VL
B19: H183/L072 VH G52cR (antibody, name in Kabat numbering, V domains shown)
VH: B1 VH with I55R
VL: B1 VL
B20: H183/L072 VH H35I (antibody, name in Kabat numbering, V domains shown)
VH: B1 VH with H35I, I55G
VL: B1 VL
B21: H183/L072 VH G65I (antibody, name in Kabat numbering, V domains shown)
VH: B1 VH with I55G, G68I
VL: B1 VL
B22: H183/L072 VH G52cL (antibody, name in Kabat numbering, V domains shown)
VH: B1 VH with I55L
VL: B1 VL
B23: H183/L072 VH G65A (antibody, name in Kabat numbering, V domains shown)
VH: B1 VH with I55G, G68A
VL: B1 VL
B24: H183/L072 VH H93A (antibody, name in Kabat numbering, V domains shown)
VH: B1 VH with I55G, H99A
VL: B1 VL
B25: H183/L072 VH H35K (antibody, name in Kabat numbering, V domains shown)
VH: B1 VH with H35K, I55G
VL: B1 VL
B26: H183/L072 VH H35E (antibody, name in Kabat numbering, V domains shown)
VH: B1 VH with H35E, I55G
VL: B1 VL
B27: H183/L072 VH G52cS (antibody, name in Kabat numbering, V domains shown)
VH: B1 VH with I55S
VL: B1 VL
B28: H183/L072 VH G65P (antibody, name in Kabat numbering, V domains shown)
VH: B1 VH with I55G, G68P
VL: B1 VL
B29: H183/L072 VH G100hL (antibody, name in Kabat numbering, V domains shown)
VH: B1 VH with I55G, G114L
VL: B1 VL
B30: H183/L072 VH H35Y (antibody, name in Kabat numbering, V domains shown)
VH: B1 VH with H35Y, I55G
VL: B1 VL
B31: H183/L072 VH G65M (antibody, name in Kabat numbering, V domains shown)
VH: B1 VH with I55G, G68M
VL: B1 VL
B32: H183/L072 VH H35A (antibody, name in Kabat numbering, V domains shown)
VH: B1 VH with H35A, I55G
VL: B1 VL
B33: H183/L072 VH G52cP (antibody, name in Kabat numbering, V domains shown)
VH: B1 VH with I55P
VL: B1 VL
B34: H183/L072 VH H35R (antibody, name in Kabat numbering, V domains shown)
VH: B1 VH with H35R, I55G
VL: B1 VL
B35: H183/L072 VH G52cM (antibody, name in Kabat numbering, V domains shown)
VH: B1 VH with I55M
VL: B1 VL
B36: H183/L072 VH H35F (antibody, name in Kabat numbering, V domains shown)
VH: B1 VH with H35F, I55G
VL: B1 VL
B37: H183/L072 VH G100hA (antibody, name in Kabat numbering, V domains shown)
VH: B1 VH with I55G, G114A
VL: B1 VL
B38: H183/L072 VH G52cW (antibody, name in Kabat numbering, V domains shown)
VH: B1 VH with I55W
VL: B1 VL
B39: H183/L072 VH G65L (antibody, name in Kabat numbering, V domains shown)
VH: B1 VH with I55G, G68L
VL: B1 VL
B40: H183/L072 VH H35V (antibody, name in Kabat numbering, V domains shown)
VH: B1 VH with H35V, I55G
VL: B1 VL
B41: H183/L072 VH G52cN (antibody, name in Kabat numbering, V domains shown)
VH: B1 VH with I55N
VL: B1 VL
B42: H183/L072 VH H35W (antibody, name in Kabat numbering, V domains shown)
VH: B1 VH with H35W, I55G
VL: B1 VL

Numbering of substitutions follows the chain as printed. Names may count otherwise.

This assay deals with T1, Human CD3eg linker. The experiment in a line: Biacore SPR, vs template H183/L072.
For the molecule B1, the “fold change of affinity” value worked out at 1.1 fold. Take B2: the “fold change of affinity” value was determined as 0.5 fold.

Turning to B3, the “fold change of affinity” value stood at 4.2 fold. Under B4 stands 1.5 fold; under B5, 0.6 fold; under B6, 1.6 fold. Under B7 stands 0 fold; under B8, 1.9 fold; under B9, 0 fold. Under B10 stands 0 fold; under B11, 1.5 fold; under B12, 2.6 fold. With B13, the “fold change of affinity” value was 0 fold. As to B14, the “fold change of affinity” value was 0 fold. As to B15, the “fold change of affinity” value stood at 0.9 fold. With B16, the “fold change of affinity” value is 0 fold. As for B17, the “fold change of affinity” value was 0 fold. Take B18: the “fold change of affinity” value was found to be 0 fold. B19: the “fold change of affinity” value was determined as 1.4 fold. On to B20, for which the “fold change of affinity” value came out at 0 fold. For the molecule B21, the “fold change of affinity” value was 1 fold.

For B22, the “fold change of affinity” value is 1.5 fold.

Take B23: the “fold change of affinity” value is 1.1 fold.

On to B24, for which the “fold change of affinity” value is 0 fold. Regarding B25, the “fold change of affinity” value turned out to be 0 fold. As to B26, the “fold change of affinity” value is 0 fold. As to B27, the “fold change of affinity” value is 1 fold. In the case of B28, the “fold change of affinity” value came to 0.9 fold.

On to B29, for which the “fold change of affinity” value is 0.8 fold. As for B30, the “fold change of affinity” value is 0 fold. For the molecule B31, the “fold change of affinity” value is 0.9 fold.

Take B32: the “fold change of affinity” value stood at 0 fold. On to B33, for which the “fold change of affinity” value was 1.3 fold. Consider B34, for which the “fold change of affinity” value amounted to 0 fold. In the case of B35, the “fold change of affinity” value was determined as 1.4 fold. As to B36, the “fold change of affinity” value was 0 fold. Regarding B37, the “fold change of affinity” value amounted to 4.8 fold.

For B38, the “fold change of affinity” value was found to be 1.5 fold. Take B39: the “fold change of affinity” value was 0.9 fold. For B40, the “fold change of affinity” value is 0 fold.

Consider B41, for which the “fold change of affinity” value is 1.2 fold. As for B42, the “fold change of affinity” value was determined as 0 fold.
